B1: Flag-BNIP3 wild-type (BCL2/adenovirus e1B 19 kDa protein interacting protein 3) [rat] / GFP-LC3 (microtubule-associated protein 1 light chain 3; plasmid pEGFP-C1-LC3B) [not stated] (parent)
chain 1: MSQSGEENLQGSWVELHFSNGNGSSVPASVSIYNGDMEKILLDAQHESGRSSSKSSHCDSPPRSQTPQDTNRAEIDTHSFGEKNSTLSEEDYIERRREVESILKKNSDWIWDWSSRPENVPPKEFLFKHPKRTATLSMRNTSVMKKGGIFSADFLKVFLPSLLLSHLLAIGLGIYIGRRLTTSTSTF
chain 2: not shown

Variants of: B1
Assay: co-IP (anti-Flag immunoprecipitation, western blot, quantified)
Settings: with GFP-LC3 (microtubule-associated protein 1 light chain 3; plasmid pEGFP-C1-LC3B); HeLa cells, 48 h after transfection; n = 3; means ± SEM; read off a plot

Variant | ratio to parent (Folds of Control)
chain 1 S60A T66A | 0.13
chain 1 S60A | 0.33
chain 1 S60D | 0.85
chain 1 S60E | 0.85

— paper PMC9672126
